This series is described as follows: label from the status in PepcDB records.
Turning to “MEQTQQNHFTALFYKNVLLGILSMAAQSIFILADTFFIANGIGTEALAGLNIVLPLVNIINGLGWMFGVGGATLFSTTVAQKEIKKANQYFSLTIGLVFVIGRLFTLVSLIFSDQIIRGLQGTGVLFGLAKEYYMIYLSCSLLFILNNCLITFLRNDHNPRLATIAFVSGGIVNIILDYVFIYQFGWGMAGAAIATVMSPLTSLILITLHKWSPQRVLRFEKFKVKFQDVREIMSIGFSSFLNEFSSAFVMFLFNIVLLNLVGHVAISAYAIVANLNIIVIAIFTGIGQGAQPLLSRYYGLGETKVLRKFVKLSFITYLVAGFLFFLISQVFTGQIIEVFNSEGNDQLAQIARTAIRLYAISFLFTGLNFMGIYYFSAVRKPKMALMISSLRGFFLIVPVLFILVKLLGLTGVWLAMPVVEFVTFGLMLVGYLAYRNYLKKREAVT”, the protein production entry was “failed”.

As to “MITMKISSRFSIAVHILSILKNNPSSLCTSDYMAESVNTNPVVIRKIMSYLKQAGFVYVNRGPGGAGLLKDLHEITLLDVYHAVNVVEEDKLFHIHEQPNPDCPIGANIQAVLEIILIQAQSAMEEVLRNITMGQLFETLQEKMNA”, the protein production entry was “not failed”.

Consider “MNKDFTFTIKSSCFDENYNPSENTRITTNFANLARGKSRQENLRNTLVMMDNRFNTLAYWDNPKANRYSVELEIISVEIDIEGNGDTFPAIEILKTNIVDKKTNERIEGIVGNNFSSYVRDYDFSVLLPEHNKSHPGFSTPDNFGDLHGKLFKCFTNSKFYKDNFNKQPVICLSVSSKNTYHRTGNQHPVLGIEYQQNEPSLTDHYFERMGLQARYFMPANSVAPLAFYFSGDLLNDYTNLELISTISTMETFQKIYRPEIYNANSAAGQYYQPNLNNQDHSLTKIVYDRVERSQLAIEQGKFTEEHFIKPYKNILEQWSAHYAR”, for which the protein production result is “not failed”.

With “MAGTDFEPDVKVRSREYRIGCVGAGMIMAECHLAAYAQAGFPVVAIASRTKASAEKVARRWDIPIVHDTPEQLIEDSKVEIVDLAFPPDQQPALIRHALKQPHIKAILAQKPLALTVEEAIKLRDEAAKSGKILSVNQNMRYDQSMRVLKQIIDSGALGDIVFAQIDMHAIPHWQAFLADYDRLTLANMSVHHLDVLRFLFGDPHEITTLTRKDPRTTFDHSDGITVSTLRFPSGVLAVSLEDVWSGPREQGYRDDQHINWRVDGTKGVAKGTIGWPTGVASTLTYASTQTTGGEWVTPSWDTMWFPHAFIGVMEQLQYAVKTGTPPALSVADNVKTMALVEAGYRSMAEGRTVRLSEISTN”, the protein production entry was “failed”.

As to “MTGSWLETLLLPFTVPFLRDAMIIALLVAVPTALLSCFLVLKGWALMGDAISHAVLPGVVLAYVAGLPLGVGAFAAGLGCALVTGYLKDNSRIKQDTVMGVVFSGMFGLGIVLHTSIRTDVHLDHILFGDMLGVGSSDLLESGLIALLVVGAIALKGRDLLLHAFDPQQARAIGLPVGLLHYGLLCLLALTIVGALKATGILLTVALLIGPGAIAFLFTRRFSSMLLAAVVISSLASVLGVYISLFLDSAPAPTIVLLLTLTFIAAFMVSRQRDRQRARGVDRPV”, the protein production result was “failed”.

“MKGKILDYSIQTSTGIIRAENQQRYSFSGSAWKEQQAPMRGMHVDFEIDAQDQVIDIFIDASDLEPAIQPSPTAVISDTVSKETHADNLSTSSDPLSSASLSHTHSQYSSSTDDQHQNLLANESKYSMMDWVMKCLRNYINFTGRARRKEYWFFQLWYAILSFVMLVLGDAFHWGDNLFLIATLLVALPAIAVSAHRLHDINRSGWLVLLNLVTIVGVLIVTFFFMIKEGDQTTNSYGPASK”: the protein production result is on record as “failed”.

“MTFNKKEKLSITALLIILYLIPAGLEWLEFDSENLHVIAISLPIWLAFFYLGPFWLFYWTQQNKHVARLHVVAQGVLYVLMMFAGANIVSRLHSMAFPQYQFPIKEQGLSAFLWGVFIFSMTHMYLLYQRFVQEQRLRKEAQLADLTSRLNPHFLFNSLNTISALIHSSPDKADDVLHKLSDILRYSVDQQNKWVPLEHELAVCETYLTVEKARFTDNLNISWQIASSVDMRQLKVPPLLLQPLIENVMKHVKRRPIELLISVQAEQGKLIFKVKDNGKGFSEPSLNEQSKAGQGLNIVKQRVDIAGGELSLFNDTSEQGGAVCEITLPIHACV”: the protein production result was “failed”.

For “MAGSVADSDAVVKLDDGHLNNSLSSPVQADVYFPRLIVPFCGHIKGGMRPGKKVLVMGIVDLNPESFAISLTCGDSEDPPADVAIELKAVFTDRQLLRNSCISGERGEEQSAIPYFPFIPDQPFRVEILCEHPRFRVFVDGHQLFDFYHRIQTLSAIDTIKINGDLQITKLG”, the protein production entry is recorded as “failed”.

Consider “MINMTRKLYYEDAYLKEAKGRVLEIRDNAILLDQTIFYPTGGGQPHDRGTINGVEVLDVYKDEEGNVWHVVKEPEKFKVGDEVELKIDWDYRYKLMRIHTGLHLLEHVLNEVLGEGNWQLVGSGMSVEKGRYDIAYPENLNKYKEQIISLFNKYVDEGGEVKIWWEGDRRYTQIRDFEVIPCGGTHVKDIKEIGHIKKLKRSSIGRGKQRLEMWLE”, for which the protein production result is given as “not failed”.

Regarding “MALQTEQFNANILRNGEWVESRTGERISISAPASGVALGSIPALSQEEVNDAIQGAKDAQKIWKIRPIHERVDLLYAWADLLEERKEIIGELIMHEVAKPKKSAIGEVSRTADIIRHTADEALRLNGETLKGDQFKGGSSKKIALVEREPLGVVLAISPFNYPVNLAAAKIAPALVTGNTVVFKPATQGSLSGIKMVEALADAGAPEGIIQVVTGRGSVIGDHLVEHPGIDMITFTGGTTTGERISEKAKMIPVVLELGGKDPAIVLDDADLKLTASQIVSGAFSYSGQRCTAIKRVFVQDSVADQLVANIKELVEQLTVGSPEDDADITPVIDEKSAAFIQGLIDDALENGATLLSGNKRQGNLLSPTLLDDVTPAMRVAWEEPFGPVLPIIRVKDANEAISLSNQSDYGLQASIFTKDTDRAINIGKHLEVGTVHINAKTERGPDHFPFLGVKKSGLGVQGIKPSLLSMTRERVTVLNL”, the protein production result is on record as “not failed”.

With “MEFLAYFNSVISNNIFLAIILSFFAGVVASFSPCTLSSIPLLIGYVQGSEVKDNKKAFKYSLIFSIGLGITFTVIGLLTALIGKAFLGAGKFWYIILAFIMIGSGLQVLDVINLFGDKKEACKITKRREGILDAFFLGILSGILASPCATPIMAAIIAFIAASGNLVIGMIMLLMYSLGHSVLIILAGTSFGLVEKIAYSENGKKIGRVLKNILGTIIILVGLYLFYLGV”, the protein production entry is recorded as “failed”.

For “MNDPVDDDAEPTGNHADGVTVADLIAKVAGSDGATPRRSRRRRAAEPDPEPEFEAQAEPAPKPTPEPEILPVAPEPPASADPTEVLQAIRYDEYPGDHAGEYPGDHPDAAYAGAADPNLDAIFEPAFAPMPFAGVTAAHPDLDSCDTEIIPAVPAADEHADLPDTHRDSWRRRTRPQHAGTDDFDEPHRRHPNRKAMIVGRAAAAMIAALTLVLTGGAWQWQSSKNDSLNKVAALDLGSRDILDPNAQFGDENFLIVGMDSRFGENSQMGAGSTDDADGARSDTIMLVNIPASRERVVAVSFPRDLAITPMKCEPWDPETGTYGPIWDEASGTYGPDEVYTETKLNSAFAFGGPKCLVKVIQKISGLSVNRFMAVDFAGFSKMVDALGGVEVCSTTPLEDYELGTVLANAGRQIVDGHTALNYVRARQVTTEYNGDYGRIKRQQLFLSSLLRSLISKDTFFSLSKLNNVVNMFIADSYVDNIKTKDLVDLGQSVQGVNAGRITFVTIPTTGYADEWGNEQPRMDDVRALFDAIINDDPLPGEKNPDNTPVPGTPESTTNTAQAPQSTSPAPQPAHAAPAPGSAEMVDTVTTEPQQVTVKVSNSTGQSGLAATAAGELEQHGFNVTTPDDYPGPLDATTVFFSPGNEEAAATVASSFSNAAIERVAGLGDVVQVVLGTDFMAVNPPSPSGSAIQVKLVRGTSSTPTQLPEDLSVTNAADATCE”, the protein production entry is recorded as “failed”.

On to “MILPPAFHAALLSGGNGRESKLPWVALGLAWLLAVLALLGPSWQRVEQTSQKPADPLVVLLELTPQMLANDVPPDRLEQARHKLLDLLQLRSDAQTAIVVYAGSAHTLVPLSDDLATSRNLLDALKPSIMPQAGQRADLALLKALKLLDQGALGQGRVLLMASSLNEEERQGIRQALKGDAPQLLMLGFGSRDGAPVAQEDGSYLKDDQGAILVSRLDSPDLKHFIGDVGGRYRQARLDDSDLRGLGLLGGPQGLRSDGQTLRLDTWADQGYWLLLPLLLLAACAGRRGWLFCLPLLLFAVPQPSYAFDFNDLWLRPDQQGQRLLQQQRPAEAARHFQDPQWQGVALYEAGNYTAAAERFAEGNDARAHYNRGNALARSGELEAAIDAYEQALERQPDLQPALQNKALVESLLQQQQAQTQTPPPAKKPDTPEGDDTRPGPSGAATQPPPGSNGPQDPAQAPANEGDTPPPDPQAAGHSEVPGSELDDQHTTTPLRPVEDSLDAEHQQALEQWLRKIPDDPGELLRRKFWYEQQQHQDQGKTR”, for which the protein production entry is reported as “failed”.

As to “MMYVTVMPVFLAGVANRFFCKSDILAWTYQPIDGGFTMSDGKRILGANKTWKGFWGMITLTTFCQVIWGFILGIIPHLLTFSLVKSYHNDIFFNLFIGFLMGSAYVLCELPNSFIKRRFNVSPGQLASGNARWVFLFADQIVPFLGSIAVVAIFSPMTFSYYVGYVLLAAITLFAINSLILFVEMKRK”, the protein production result was “failed”.

Take “MKLAIVTACPGGQVTSVLAARLLRGAAERLGWETCVEANAGSRPEGELSAEQIAEADWVLLVGVEPLAAARFVGKPVYRARPAEALADPRAFLQRAAALASVEVAGDEAGLVAPEAGAAPRIVAVTACPTGVAHTFMAAEALQLAAGQLGFALQVETQGSVGARNPLDPADIAAADVVLLAADIDVDTARFAGKKIYRCGTGVALKQARATLERALAEGQVESAGAASAVVARDEKRGVYKHL”: the protein production result is given as “failed”.

On to “MSLVKIVRIETFPLFHRLEKPYGDANGFKRYRTCYLIRIITESGIDGWGECVDWLPALHVGFTKRIIPFLLGKQAGSRLSLVRTIQKWHQRAASAVSMALTEIAAKAADCSVCELWGGRYREEIPVYASFQSYSDSPQWISRSVSNVEAQLKKGFEQIKVKIGGTSFKEDVRHINALQHTAGSSITMILDANQSYDAAAAFKWERYFSEWTNIGWLEEPLPFDQPQDYAMLRSRLSVPVAGGENMKGPAQYVPLLSQRCLDIIQPDVMHVNGIDEFRDCLQLARYFGVRASAHAYDGSLSRLYALFAQACLPPWSKMKNDHIEPIEWDVMENPFTDLVSLQPSKGMVHIPKGKGIGTEINMEIVNRYKWDGSAYEGHHHHHH”, for which the protein production result was “not failed”.

On to “MSERPVQSKLNNALNILKQGDLRGSYAELERLLRDDLENAEIDYTLKGVRFWEDKLEKAKKASTPLERAEMMISQWKPFLAYIHRQGEEKESIIYSLKCAVFTIALEFYADLFNEESELPDAEPYRKIGLCYKVLGNYERALDFLRYAAEIDKNSGSVLADLADCYALYGEIKFAKAFFREAFFIDPEGIELQFLESEIICRLINRVYNLGYRVEDIADWLPIYGVIDGVFNVKRELRAFEVGQLKQNIFLMEGEVQNASQEQKHKLVPRLINHYFWLIDHYVSVNESKSKIDDLLLRIKVLDQNIYNCYMR”, for which the protein production result is “failed”.

As for “MTSVLEKRHAPKQRAEAQRALTGEDFVGDEAPGKDLPSRPRLDPAEFIKANMGLVPVLALPEIRFYTAHPGSGLRRLVDPEDDADADDDTPEPQPPYWAYAWAGGAVLARHILNHPKTVAGRRVLDLGAGSGIVGIAAAKAGASEVIAAEIDRNGVAAIGLNAAANGVEITIVHQDITMGSPPAVDLVLAGDVFYGREVALRVIPFLDRCLAAGIEVLVGDPRRHDLPLSRLRLLAEYQVPDFGDAKDAALKPSGVFRFEAETAPALAGAIKPSP”, the protein production entry is “failed”.

For “MLHFQHTSIINAPPEVVWKFHERPDILQLLTPPWQPVRVVRREGGLEVGAITEFKLFLGPVPLTWLARHTECDKYRLFTDTQISGPFESWIHRHQFQPENGKTKLIDDVSYVMPGGETIEFIGGWLIQAQLEAMFRYRHYVTKRECE”, the protein production entry is “failed”.

These data come from a protein production outcome set (Wang et al. 2014).
